Experiments:
[1] = target: human OX40 on cells (human) (UniProt P43489); experiment: flow cytometry on human PBMCs activated with anti-CD3/CD28 beads, 50 nM antibody
[2] = target: human OX40 on cells (human) (UniProt P43489); experiment: cell-based or functional assay

Chain of human OX40 on cells (human) (P43489 29-277): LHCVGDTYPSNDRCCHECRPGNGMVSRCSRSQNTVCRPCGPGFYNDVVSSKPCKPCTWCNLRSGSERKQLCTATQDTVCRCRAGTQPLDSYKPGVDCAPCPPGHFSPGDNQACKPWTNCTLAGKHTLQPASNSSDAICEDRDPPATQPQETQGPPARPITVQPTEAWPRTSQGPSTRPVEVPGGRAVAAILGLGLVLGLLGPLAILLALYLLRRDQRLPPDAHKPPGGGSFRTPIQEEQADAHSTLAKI

Row | Binding percentage % [1] | MFI (ten thousand) [1] | Luciferase IFM, Jurkat-hOX40-NFκB-2 cells [2] | Substance
1 | 23% | 7000 |  | IgG1 (antibody)
2 |  |  | 59000 | OX40L (ligand)
